Literature values as cited in patent US6884600B1, “Protein phosphatase-1 catalytic subunit interactions” (Medical Research Council London, priority 1996, dated 2005).

Biological target: PP1
Settings: Beullens et al., 1992; read-out: inhibitory constant for PP1; cited from earlier work

B1: NIPP-1: nuclear inhibitor of PP1 (protein, UniProt Q12972 1-351, looked up)
Nuclear inhibitor of protein …: MAAAANSGSSLPLFDCPTWAGKPPPGLHLDVVKGDKLIEKLIIDEKKYYLFGRNPDLCDFTIDHQSCSRVHAALVYHKHLKRVFLIDLNSTHGTFLGHIRLEPHKPQQIPIDSTVSFGASTRAYTLREKPQTLPSAVKGDEKMGGEDDELKGLLGLPEEETELDNLTEFNTAHNKRISTLTIEEGNLDIQRPKRKRKNSRVTFSEDDEIINPEDVDPSVGRFRNMVQTAVVPVKKKRVEGPGSLGLEESGSRRMQNFAFSGGLYGGLPPTHSEAGSQPHGIHGTALIGGLPMPYPNLAPDVDLTPVVPSAVNMNPAPNPAVYNPEAVNEPKKKKYAKEAWPGKKPTPSLLI
For B1, the Ki is given as 1 pM.
